Assay results as given in PMC3466309, “Initial Characterization of the Pf-Int Recombinase from the Malaria Parasite Plasmodium falciparum”.

What was measured:
[1] = molecular target: T1, Pf-Int-C162 (Plasmodium falciparum 3D7, UniProt C0H5A8 162-490); test: EMSA; 10 ug/ml poly(dI-dC); EMSA: 50 mM Tris pH 8, 150 mM NaCl, 0.1 mM EDTA, 5 mM DTT, 50 ug/ml BSA, 2% glycerol, 0.5% Tween 20, 10 ug/ml poly(dI-dC) unless omitted, 10 nM DNA, 20 min at 20 C; 5% gel in 0.5x TBE at 18 C; details: protein: recombinant; tags: N- or C-terminal His6 versions; label: 5'-DY682 on strand 1; blunt
T1 sequence: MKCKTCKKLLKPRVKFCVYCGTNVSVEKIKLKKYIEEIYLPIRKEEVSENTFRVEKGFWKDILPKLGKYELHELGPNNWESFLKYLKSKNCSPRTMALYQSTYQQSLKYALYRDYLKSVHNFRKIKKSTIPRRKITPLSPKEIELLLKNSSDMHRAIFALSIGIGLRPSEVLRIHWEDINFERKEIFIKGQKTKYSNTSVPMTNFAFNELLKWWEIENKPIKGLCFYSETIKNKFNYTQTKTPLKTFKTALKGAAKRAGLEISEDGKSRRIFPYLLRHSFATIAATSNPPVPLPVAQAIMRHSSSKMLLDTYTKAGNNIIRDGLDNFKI

[2] = molecular target: T2, His6-Pf-Int-C192 (Plasmodium falciparum 3D7, UniProt C0H5A8 192-490); test: EMSA supershift; 0.04 or 0.2 uM protein; anti-Pf-Int disrupts, anti-His5 supershifts; EMSA: 50 mM Tris pH 8, 150 mM NaCl, 0.1 mM EDTA, 5 mM DTT, 50 ug/ml BSA, 2% glycerol, 0.5% Tween 20, 10 ug/ml poly(dI-dC) unless omitted, 10 nM DNA, 20 min at 20 C; 5% gel in 0.5x TBE at 18 C; details: protein: recombinant; tags: N-terminal His6; label: 5'-DY682 on strand 1; blunt
T2 sequence: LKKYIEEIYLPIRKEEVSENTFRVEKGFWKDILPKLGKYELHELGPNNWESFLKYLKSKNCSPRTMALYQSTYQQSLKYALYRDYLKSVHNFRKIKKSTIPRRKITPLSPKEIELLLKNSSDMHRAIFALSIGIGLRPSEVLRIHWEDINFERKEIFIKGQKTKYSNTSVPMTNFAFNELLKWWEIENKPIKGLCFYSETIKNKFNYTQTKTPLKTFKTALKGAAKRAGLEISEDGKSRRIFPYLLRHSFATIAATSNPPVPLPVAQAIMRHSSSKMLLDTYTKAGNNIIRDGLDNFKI

[3] = molecular target: T3, Pf-Int-C192 (Plasmodium falciparum 3D7, UniProt C0H5A8 192-490); test: EMSA; 10 ug/ml poly(dI-dC); max shift at ~15-fold higher protein/DNA ratio than without; EMSA: 50 mM Tris pH 8, 150 mM NaCl, 0.1 mM EDTA, 5 mM DTT, 50 ug/ml BSA, 2% glycerol, 0.5% Tween 20, 10 ug/ml poly(dI-dC) unless omitted, 10 nM DNA, 20 min at 20 C; 5% gel in 0.5x TBE at 18 C; details: protein: recombinant; label: 5'-DY682 on strand 1; blunt
T3 sequence: T2 sequence

B1: Selex8 (dsDNA)
DNA 1: CAAACACACTGTGCGCGCGTCG
DNA 2: CGACGCGCGCACAGTGTGTTTG
binding result [1]: no binding | binding result [2]: binds | binding result [3]: binds
